Reference: publication PMC6526958

B1: membrane-bound CD73 (MDA-MB-231 membrane preparation) (Homo sapiens) (protein)
chain: WELTILHTNDVHSRLEQTSEDSSKCVNASRCMGGVARLFTKVQQIRRAEPNVLLLDAGDQYQGTIWFTVYKGAEVAHFMNALRYDAMALGNHEFDNGVEGLIEPLLKEAKFPILSANIKAKGPLASQISGLYLPYKVLPVGDEVVGIVGYTSKETPFLSNPGTNLVFEDEITALQPEVDKLKTLNVNKIIALGHSGFEMDKLIAQKVRGVDVVVGGHSNTFLYTGNPPSKEVPAGKYPFIVTSDDGRKVPVVQAYAFGKYLGYLKIEFDERGNVISSHGNPILLNSSIPEDPSIKADINKWRIKLDNYSTQELGKTIVYLDGSSQSCRFRECNMGNLICDAMINNNLRHTDEMFWNHVSMCILNGGGIRSPIDERNNGTITWENLAAVLPFGGTFDLVQLKGSTLKKAFEHSVHRYGQSTGEFLQVGGIHVVYDLSRKPGDRVVKLDVLCTKCRVPSYDPLKMDEVYKVILPNFLANGGDGFQMIKDELLRHDSGDQDINVVSTYISKMKVIYPAVEGRIKFSTGSHCHGSFSLIFLSLWAVIFVLYQ
B2: recombinant soluble human CD73 (Homo sapiens) (protein)
chain: ELTILHTNDVHSRLEQTSEDSSKCVNASRCMGGVARLFTKVQQIRRAEPNVLLLDAGDQYQGTIWFTVYKGAEVAHFMNALRYDAMALGNHEFDNGVEGLIEPLLKEAKFPILSANIKAKGPLASQISGLYLPYKVLPVGDEVVGIVGYTSKETPFLSNPGTNLVFEDEITALQPEVDKLKTLNVNKIIALGHSGFEMDKLIAQKVRGVDVVVGGHSNTFLYTGNPPSKEVPAGKYPFIVTSDDGRKVPVVQAYAFGKYLGYLKIEFDERGNVISSHGNPILLNSSIPEDPSIKADINKWRIKLDNYSTQELGKTIVYLDGSSQSCRFRECNMGNLICDAMINNNLRHTDEMFWNHVSMCILNGGGIRSPIDERNNGTITWENLAAVLPFGGTFDLVQLKGSTLKKAFEHSVHRYGQSTGEFLQVGGIHVVYDLSRKPGDRVVKLDVLCTKCRVPSYDPLKMDEVYKVILPNFLANGGDGFQMIKDELLRHDSGDQDINVVSTYISKMKVIYPAVEGRIKFS

Key:
[1] = substrate: Nc1ncnc2c1ncn2[C@@H]1O[C@H](COP(=O)(O)O)[C@@H](O)[C@H]1O; experiment: radiometric CD73 assay, membrane preparations of MDA-MB-231 cells; format: biochemical, human; conditions: other: substrate AMP; membrane preparation; 37.0 °C
[2] = substrate: Nc1ncnc2c1ncn2[C@@H]1O[C@H](COP(=O)(O)O)[C@@H](O)[C@H]1O; experiment: purified protein, by the assay type; format: biochemical, human; conditions: other: substrate AMP

Row | Protein | Km [1] [µM] | Km [2] [µM]
1 | B1 | 14.8 ± 2.1 | –
2 | B2 | – | 17.0 ± 2.1
